Laboratory results reported in US20030229005.
Values joined by “and” are separate entries in the source; they are usually repeats but may differ in a detail not shown here. Equal values may be shown once.

What was measured:
[1] = tested on: Dab-SYPSGIHLC(Flu)LQR-NH2
type IV collagen = type IV collagen (UniProt P08572)
[2] = tested on: Dabcyl-GPLGMRGC(Fluorescein)-NH2
[3] = tested on: Dnp-VC(Me)PKGITSC(Me)VFR-NH2

Chain of gelatinase B (chain, as listed by the source): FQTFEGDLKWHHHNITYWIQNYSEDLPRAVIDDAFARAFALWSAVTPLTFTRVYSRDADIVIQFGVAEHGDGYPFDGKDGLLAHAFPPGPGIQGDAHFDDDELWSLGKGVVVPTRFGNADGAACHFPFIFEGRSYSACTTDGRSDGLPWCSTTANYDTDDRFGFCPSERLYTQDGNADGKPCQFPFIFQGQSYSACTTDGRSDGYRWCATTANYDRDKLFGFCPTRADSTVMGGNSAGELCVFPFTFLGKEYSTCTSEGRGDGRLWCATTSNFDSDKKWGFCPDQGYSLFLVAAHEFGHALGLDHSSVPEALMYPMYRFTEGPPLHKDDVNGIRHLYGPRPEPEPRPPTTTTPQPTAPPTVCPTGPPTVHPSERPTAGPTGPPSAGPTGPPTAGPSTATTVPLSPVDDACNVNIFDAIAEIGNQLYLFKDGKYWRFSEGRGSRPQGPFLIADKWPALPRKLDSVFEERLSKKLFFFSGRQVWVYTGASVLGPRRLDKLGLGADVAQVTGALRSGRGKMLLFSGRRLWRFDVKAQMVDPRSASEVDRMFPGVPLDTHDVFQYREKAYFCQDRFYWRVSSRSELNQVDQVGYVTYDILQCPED
Chain of type IV collagen (P08572 26-1712, chain 1 of 2): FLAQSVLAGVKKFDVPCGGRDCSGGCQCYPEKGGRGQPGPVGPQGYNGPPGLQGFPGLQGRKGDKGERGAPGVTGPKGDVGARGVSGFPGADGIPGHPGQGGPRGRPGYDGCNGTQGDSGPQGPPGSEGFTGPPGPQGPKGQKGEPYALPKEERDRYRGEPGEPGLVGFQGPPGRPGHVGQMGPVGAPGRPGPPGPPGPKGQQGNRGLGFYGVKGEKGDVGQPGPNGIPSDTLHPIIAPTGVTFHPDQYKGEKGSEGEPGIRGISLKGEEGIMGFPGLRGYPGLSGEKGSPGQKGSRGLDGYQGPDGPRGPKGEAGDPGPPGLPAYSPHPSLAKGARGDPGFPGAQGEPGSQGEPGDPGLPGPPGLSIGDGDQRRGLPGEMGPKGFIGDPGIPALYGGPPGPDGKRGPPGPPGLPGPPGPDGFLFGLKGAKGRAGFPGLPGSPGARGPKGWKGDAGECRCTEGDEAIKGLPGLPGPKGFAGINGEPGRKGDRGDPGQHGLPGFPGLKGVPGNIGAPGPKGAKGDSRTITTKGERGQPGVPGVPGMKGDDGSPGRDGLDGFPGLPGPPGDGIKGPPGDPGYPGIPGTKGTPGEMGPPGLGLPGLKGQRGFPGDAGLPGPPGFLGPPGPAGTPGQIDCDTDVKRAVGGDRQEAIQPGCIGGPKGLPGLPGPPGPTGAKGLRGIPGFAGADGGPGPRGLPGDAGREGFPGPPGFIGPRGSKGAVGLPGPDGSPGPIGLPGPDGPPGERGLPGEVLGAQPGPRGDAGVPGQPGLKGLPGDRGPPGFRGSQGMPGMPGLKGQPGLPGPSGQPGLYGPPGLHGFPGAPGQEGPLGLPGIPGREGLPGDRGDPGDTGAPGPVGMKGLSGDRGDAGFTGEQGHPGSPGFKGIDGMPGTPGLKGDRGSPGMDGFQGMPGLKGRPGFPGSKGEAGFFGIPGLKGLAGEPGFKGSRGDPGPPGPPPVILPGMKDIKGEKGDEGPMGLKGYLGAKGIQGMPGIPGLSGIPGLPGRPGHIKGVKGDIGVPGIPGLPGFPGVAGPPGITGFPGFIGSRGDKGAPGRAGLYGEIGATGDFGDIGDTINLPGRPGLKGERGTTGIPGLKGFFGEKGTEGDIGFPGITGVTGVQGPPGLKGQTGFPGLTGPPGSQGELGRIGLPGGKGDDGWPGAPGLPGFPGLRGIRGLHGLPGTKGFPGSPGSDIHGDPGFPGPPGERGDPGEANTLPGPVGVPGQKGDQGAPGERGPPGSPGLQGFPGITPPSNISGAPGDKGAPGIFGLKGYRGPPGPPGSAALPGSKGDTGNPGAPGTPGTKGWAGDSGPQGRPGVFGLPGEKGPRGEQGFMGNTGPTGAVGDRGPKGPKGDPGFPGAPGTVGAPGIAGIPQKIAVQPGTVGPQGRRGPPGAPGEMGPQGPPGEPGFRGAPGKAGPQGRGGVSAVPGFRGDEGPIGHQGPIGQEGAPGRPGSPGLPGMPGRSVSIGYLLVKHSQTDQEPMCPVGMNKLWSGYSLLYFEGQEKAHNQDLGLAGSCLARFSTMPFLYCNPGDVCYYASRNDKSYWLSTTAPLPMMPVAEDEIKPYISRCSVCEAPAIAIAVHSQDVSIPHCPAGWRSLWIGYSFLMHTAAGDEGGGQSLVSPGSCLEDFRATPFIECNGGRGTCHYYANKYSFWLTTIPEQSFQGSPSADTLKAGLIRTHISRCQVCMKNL
Chain of type IV collagen (chain, as listed by the source, chain 2 of 2): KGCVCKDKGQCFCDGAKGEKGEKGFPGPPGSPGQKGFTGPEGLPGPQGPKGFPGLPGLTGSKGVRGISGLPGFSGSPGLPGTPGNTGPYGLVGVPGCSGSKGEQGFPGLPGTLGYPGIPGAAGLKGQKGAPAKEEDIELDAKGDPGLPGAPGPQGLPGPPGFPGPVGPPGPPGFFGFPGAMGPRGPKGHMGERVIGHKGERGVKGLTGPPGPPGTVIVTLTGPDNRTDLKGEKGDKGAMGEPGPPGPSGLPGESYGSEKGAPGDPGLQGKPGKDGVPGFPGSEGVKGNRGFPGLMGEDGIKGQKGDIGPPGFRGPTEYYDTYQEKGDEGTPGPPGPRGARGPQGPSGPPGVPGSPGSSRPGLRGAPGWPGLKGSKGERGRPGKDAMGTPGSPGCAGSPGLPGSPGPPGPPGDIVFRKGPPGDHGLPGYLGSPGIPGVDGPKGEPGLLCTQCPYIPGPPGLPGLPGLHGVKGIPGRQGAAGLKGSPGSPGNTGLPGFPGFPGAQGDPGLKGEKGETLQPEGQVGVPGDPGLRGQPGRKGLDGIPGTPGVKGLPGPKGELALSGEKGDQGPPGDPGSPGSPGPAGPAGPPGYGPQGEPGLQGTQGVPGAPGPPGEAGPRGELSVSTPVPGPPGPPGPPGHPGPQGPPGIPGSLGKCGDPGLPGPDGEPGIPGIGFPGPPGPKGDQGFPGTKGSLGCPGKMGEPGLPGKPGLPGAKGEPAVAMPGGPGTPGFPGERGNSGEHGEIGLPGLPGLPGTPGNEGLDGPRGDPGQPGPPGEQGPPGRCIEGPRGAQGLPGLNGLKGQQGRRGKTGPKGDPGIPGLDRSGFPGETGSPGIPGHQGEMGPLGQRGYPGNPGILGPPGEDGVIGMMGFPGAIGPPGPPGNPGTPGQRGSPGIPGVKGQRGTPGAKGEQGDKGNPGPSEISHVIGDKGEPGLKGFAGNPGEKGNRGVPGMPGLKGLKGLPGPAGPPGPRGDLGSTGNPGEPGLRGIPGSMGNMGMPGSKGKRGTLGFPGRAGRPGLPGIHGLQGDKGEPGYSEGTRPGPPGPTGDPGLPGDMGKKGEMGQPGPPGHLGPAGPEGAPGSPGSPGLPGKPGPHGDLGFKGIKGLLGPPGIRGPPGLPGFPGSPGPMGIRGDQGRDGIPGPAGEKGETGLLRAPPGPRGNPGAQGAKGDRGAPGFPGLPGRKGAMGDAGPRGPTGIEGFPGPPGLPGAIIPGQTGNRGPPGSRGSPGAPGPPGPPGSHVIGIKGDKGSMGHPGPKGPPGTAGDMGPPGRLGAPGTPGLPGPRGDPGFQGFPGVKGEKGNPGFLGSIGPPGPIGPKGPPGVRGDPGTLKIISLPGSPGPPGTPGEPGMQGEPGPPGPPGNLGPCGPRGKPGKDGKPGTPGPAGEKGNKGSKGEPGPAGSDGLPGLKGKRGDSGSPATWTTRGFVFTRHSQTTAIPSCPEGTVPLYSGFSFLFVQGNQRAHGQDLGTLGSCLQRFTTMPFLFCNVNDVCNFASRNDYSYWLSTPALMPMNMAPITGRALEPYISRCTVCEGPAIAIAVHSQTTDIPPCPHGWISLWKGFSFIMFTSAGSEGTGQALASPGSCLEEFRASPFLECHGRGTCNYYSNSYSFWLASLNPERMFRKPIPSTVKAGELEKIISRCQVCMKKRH

## human Collagenase-3
Dnp-GPHPFRG-NH2
  Specificity Constant (kcat/Km): 900000 1/sM
Dnp-GPSPLHGC(Me)-NH2
  Specificity Constant (kcat/Km): 1.76e+06 1/sM
Dnp-PHPFRG-NH2
  Specificity Constant (kcat/Km): 230000 1/sM
Dnp-GPFGLKG-NH2
  Specificity Constant (kcat/Km): 1.28e+06 1/sM
Dnp-GPSGIHL-NH2
  Specificity Constant (kcat/Km): 284000 1/sM
Dnp-GPMSYNG-NH2
  Specificity Constant (kcat/Km): 887000 1/sM
Dnp-GPLSFQG-NH2
  Specificity Constant (kcat/Km): 454000 1/sM
Dnp-PINLHG-NH2
  Specificity Constant (kcat/Km): 377000 1/sM
Dnp-GPLPLHGC(Me)-NH2
  Specificity Constant (kcat/Km): 1.1e+06 1/sM
Dnp-GPVNLHG-NH2
  Specificity Constant (kcat/Km): 1.15e+06 1/sM
Dnp-GPLGFRVC(Me)-NH2
  Specificity Constant (kcat/Km): 3.92e+06 1/sM
[1]
  sensitivity for collagenase 3 against the consensus substrate FlSb1: 100-fold less sensitive for collagenase 3 compared to the consensus substrate
Dnp-GPKGMRG-NH2
  Specificity Constant (kcat/Km): 2.32e+06 1/sM
Dnp-GPHPMRG-NH2
  Specificity Constant (kcat/Km): 2.33e+06 1/sM
Dnp-GPAPFRVC(Me)-NH2
  Specificity Constant (kcat/Km): 1.76e+06 1/sM
Dnp-DEGPMGLKC(Me)YLG-NH2
  Specificity Constant (kcat/Km): 528000 1/sM
Dnp-GPLGMRG-NH2
  Specificity Constant (kcat/Km), + 1:1 Gelatin: 340000 1/sM
  Specificity Constant (kcat/Km), + 1:4 Gelatin: 562000 1/sM
  Specificity Constant (kcat/Km), + 1:16 Gelatin: 1.93e+06 1/sM
  Specificity Constant (kcat/Km), + 1:64 Gelatin: 2.67e+06 1/sM
  Specificity Constant (kcat/Km), + 1:256 Gelatin: 4.65e+06 1/sM
  Specificity Constant (kcat/Km), + H2O: 3.16e+06 1/sM
Dnp-GPVNFRVC(Me)-NH2
  Specificity Constant (kcat/Km), substrate 5 uM: 2.57e+06 1/sM
Dnp-GPLPFRGC(Me)-NH2
  Specificity Constant (kcat/Km): 973000 1/sM
Type IV collagen
  cleavage seen on a gel: type IV collagen digestion gave 3-4 detectable cleavage products (85 kDa, 80 kDa, 35 kDa and 28 kDa
Dabcyl-GPVNLHGC(Flu)-NH2
  Specificity Constant: 421000 1/sM
  Specificity Constant, 0.85 to 2.10 Hours, + 1.6 ug/ml TIICol: 1.54e+06 1/sM
  Specificity Constant, 0.85 to 2.10 Hours, + 4.9 ug/ml TIICol: 1.88e+06 1/sM
  Specificity Constant, 0.85 to 2.10 Hours, + 15 ug/ml TIICol: 2.25e+06 1/sM
  Specificity Constant, 0.85 to 2.10 Hours, + 44 ug/ml TIICol: 2.55e+06 1/sM
  Specificity Constant, 0.85 to 2.10 Hours, + .18 ug/ml TIICol: 1.33e+06 1/sM
  Specificity Constant, 0.85 to 2.10 Hours, + .55 ug/ml TIICol: 1.47e+06 1/sM
  Specificity Constant, 0.85 to 2.10 Hours, no TIICol: 1.11e+06 1/sM
  Specificity Constant, + Gel: 471000 1/sM
Dnp-GPSELKG-NH2
  Specificity Constant (kcat/Km): 862000 1/sM
Dnp-GPSPFHVC(Me)-NH2
  Specificity Constant (kcat/Km): 338000 1/sM
Dnp-GPINLHG-NH2
  Specificity Constant (kcat/Km): 700000 1/sM
Dnp-GPLGLHVC(Me)-NH2
  Specificity Constant (kcat/Km): 4.46e+06 1/sM
Dnp-GPAPFRGC(Me)-NH2
  Specificity Constant (kcat/Km): 1.14e+06 1/sM
Dnp-GPYGMRA-NH2
  Specificity Constant (kcat/Km): 5.66e+06 1/sM
Dnp-PSGIHL-NH2
  Specificity Constant (kcat/Km): 91700 1/sM
biglycan
  cleavage seen on a gel: Cleavage of biglycan generated peptide fragments of 28, 17, 8, and 6 kDa
Dnp-GPSPFRGC(Me)-NH2
  Specificity Constant (kcat/Km): 1.3e+06 1/sM
Dnp-GPLPFHVC(Me)-NH2
  Specificity Constant (kcat/Km): 598000 1/sM
Dnp-GPLPFRVC(Me)-NH2
  Specificity Constant (kcat/Km): 1.29e+06 1/sM
Dnp-GPAPLHVC(Me)-NH2
  Specificity Constant (kcat/Km): 677000 1/sM
Dnp-VTPYNMRG-NH2
  Specificity Constant (kcat/Km): 2.69e+06 1/sM
[2]
  Specificity Constant: 4.4e+06 1/sM and 1.62e+06 1/sM
  Specificity Constant, + Gel: 1.74e+06 1/sM
Dnp-GPLSISG-NH2
  Specificity Constant (kcat/Km): 191000 1/sM
Dnp-GPLSIQD-NH2
  Specificity Constant (kcat/Km): 868000 1/sM
Dnp-GPKGITS-NH2
  Specificity Constant (kcat/Km): 734000 1/sM
[3]
  Specificity Constant (kcat/Km): 1.54e+06 1/sM
Dnp-PLGMRG-NH2
  Specificity Constant (kcat/Km): 980000 1/sM
Dnp-GPSGIHV-NH2
  Specificity Constant (kcat/Km): 1.41e+06 1/sM
Dnp-GPLGLHGC(Me)-NH2
  Specificity Constant (kcat/Km): 3.73e+06 1/sM
Dnp-GPLQFRG-NH2
  Specificity Constant (kcat/Km): 705000 1/sM
Dnp-GPVNLHGC(Me)-NH2
  Specificity Constant (kcat/Km): 813000 1/sM
Dnp-GPVNLHGRC(Me)-NH2
  Specificity Constant (kcat/Km): 1.04e+06 1/sM
Dnp-GPLQMRG-NH2
  Specificity Constant (kcat/Km): 885000 1/sM
Dnp-GPLGFRGC(Me)-NH2
  Specificity Constant (kcat/Km): 2.4e+06 1/sM
Dnp-GPRPFRG-NH2
  Specificity Constant (kcat/Km): 634000 1/sM
Dnp-GPAPLHGC(Me)-NH2
  Specificity Constant (kcat/Km): 1.69e+06 1/sM
Dabcyl-GPHPFRGC(Flu)-NH2
  Specificity Constant: 32700 1/sM
  Specificity Constant, + Gel: 26900 1/sM

## gelatinase B
Dnp-GPVNFRVC(Me)-NH2
  Selectivity v. Coll-3, substrate 5 uM: 217 unitless
Type IV collagen
  cleavage seen on a gel: Both collagenase 1 and gelatinase B processed type IV collagen under the conditions used in our experiments
biglycan
  cleavage seen on a gel: stromelysin 1 and gelatinase B being able to degrade this proteoglycan

## stromelysin 1
Dnp-GPVNFRVC(Me)-NH2
  Selectivity v. Coll-3, substrate 5 uM: 400 unitless
biglycan
  cleavage seen on a gel: stromelysin 1 and gelatinase B being able to degrade this proteoglycan
